First the molecules themselves.
B1: mu-89 (antibody, V domains shown)
VH: EVQLVESGGDLVKPGGSLKLSCAASGFTFSSYGMSWVRQTPDKRLEWVATISSGGSYTYYPDSVKGRFTFSRDNAKNTLYLQMSSLKSEDTAMYYCVRQALRYHMDSWGQGTSVTVSS
VL: DIVMTQSQKFMSTSVGDRVSVTCKASQNVGTNVAWYQQKPGQSPKALIYSASYRYSGVPDRFTGSGSGTDFTLTISNVQSEDLADFFCQQYYSYPWTFGGGTKLEIK
B2: mu-105 (antibody, V domains shown)
VH: EVQLQQSGPELVKPGASVKMSCKASGYTFTDYYMNWVKQSHGKSLEWIGYIYPNNGGTGYNQRFKGKATLTADKSSSTAYMELRSLTSEDSAVYYCARWGGTRLGYYAMDYWGQGTSVTVSS
VL: B1 VL with A34V, A46L, S50W, Y53T, Y55H, S56T, F86Y, Y92S, S93R, W96Y
B3: mu-131 (antibody, V domains shown)
VH: EVQLQQSGPELVKPGASVKMSCKASGYTFTNYVMHWVKQKPGQGLEWIGYFNPYNDGTNYNEKFKGKATLTSDKSSNTAYMELSSLTSEDSAVYYCARGGVRRYFDVWGAGTTVTVSS
VL: DIQMTQSPSSLSASLGERVSLTCRASQDIGSNLNWLQLGPDGTIKRLIYATFSLDSGVPKRFSGSRSGSDYSLTISSLESEDFVDYYCQQYANFPPTFGGGTKLEIK
B4: mu-128 (antibody, V domains shown)
VH: DVQLVESGGGLVQPGGSRKVSCAASGFTFSSFGMHWVRQAPEKGLEWVAYISRGSSTIYYADTVKGRFTISRDNPKNTLFLQMTSLRSEDTAMYYCARSGYGSSSYYFDYWGQGTTLTVSS
VL: ENVLTQSPAIMSASPREKVTMTCRASSSIRSSYLHWYQQKSGASPKLWIYSTSNLASGVPARFSGSGSGTSYSLTISSVEAEDAATYYCQQFSGYPLTFGGGTKLEIK
B5: mu-169 (antibody, V domains shown)
VH: EVKLVESGGGLVKPGASLKLSCAASGFTFSNYGMSWVRQTSDKRLEWVASISSGGGRIYYPDNVKGRFTISRENAKNTLYLQMSSLKSEDTALYYCTRHAMDNWGQGTSVIVSS
VL: QIVLTQSPAIMSASPGEKVTMTCSASSSVSNMYWYQQKSGTSPKRWIYDTSKLASGVPARFSGSGSGTSYSLTISSMEAEDASTYYCQQWSSNPLTFGAGTTLELK

Positions count from the first letter of the chain named.

Results on five molecules are retold here after patent publication EP4703384A1.

Sequence of human GPRC5D protein (human) (Q9NZD1 whole entry): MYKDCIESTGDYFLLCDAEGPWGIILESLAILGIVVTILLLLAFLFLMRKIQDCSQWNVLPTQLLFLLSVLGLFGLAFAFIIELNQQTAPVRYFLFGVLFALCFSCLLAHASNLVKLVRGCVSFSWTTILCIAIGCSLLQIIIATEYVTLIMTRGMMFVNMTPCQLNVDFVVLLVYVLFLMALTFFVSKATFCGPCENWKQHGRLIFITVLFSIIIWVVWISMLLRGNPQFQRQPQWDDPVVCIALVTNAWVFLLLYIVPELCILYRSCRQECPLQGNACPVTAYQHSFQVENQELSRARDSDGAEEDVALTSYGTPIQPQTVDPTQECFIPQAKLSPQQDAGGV

The first experiment deals with CHO-K1-hGPRC5D^hi cells, CHO-K1-cynoGPRC5D cells, and/or CHO-K1-murineGPRC5D cells. The experiment in a line: cell ELISA (OD450), subclone supernatant on fixed transfected CHO-K1 cells against CHO-K1. On the technique in general: An ELISA detects its analyte on a solid surface through an enzyme-linked reagent.
In the case of B1, the fold difference in absorbance as compared to the control cell CHO-K1 is above 2 fold.
For B2, the fold difference in absorbance as compared to the control cell CHO-K1 was above 2 fold.
Still for that read-out and setting: the result for B3 reads above 2 fold.
For the molecule B4, the fold difference in absorbance as compared to the control cell CHO-K1 is above 2 fold.
Consider B5, for which the fold difference in absorbance as compared to the control cell CHO-K1 was above 2 fold.

A further experiment has as its target human GPRC5D protein (human) (UniProt Q9NZD1). In words: FACS, hybridoma subclone supernatant on NCI-H929 cells. In general terms: A flow cytometer gives signals particle by particle.
Regarding B1, the MFI came to 11900 MFI.
For the molecule B2, the MFI came out at 13200 MFI.
Turning to B3, the MFI worked out at 12800 MFI.
B4 returned an MFI of 15700 MFI.
B5 gave an MFI of 59300 MFI.
